Experimental data published in PMC9680708.

Experiments:
Assay in all cases: other fluorescence titration
[1] = biological target: FlAsH-labeled single-mutant (E262A) open-state collybistin FRET sensor F1smDA (rat)
[2] = biological target: FlAsH-labeled collybistin FRET sensor F73DA (rat)
[3] = biological target: FlAsH-labeled collybistin FRET sensor F28DA (rat)
[4] = biological target: FlAsH-labeled wild-type collybistin (CB) FRET sensor F1DA (rat)
[5] = biological target: FlAsH-labeled double-mutant (W24A/E262A) open-state collybistin FRET sensor F1dmDA (rat)
[6] = biological target: FlAsH-labeled collybistin FRET sensor F99DA (rat)

Substance	Kd [1] [µM]	species-weighted average fluorescence lifetime of CFP in the sensor with ligand [1] [ns]	species-weighted average fluorescence lifetime of CFP in the sensor with ligand [2] [ns]	species-weighted average fluorescence lifetime of CFP in the sensor with ligand [3] [ns]	Kd [4] [µM]	species-weighted average fluorescence lifetime of CFP in the sensor with ligand [4] [ns]	Kd [5] [µM]	species-weighted average fluorescence lifetime of CFP in the sensor with ligand [5] [ns]	species-weighted average fluorescence lifetime of CFP in the sensor with ligand [6] [ns]
intracellular cytosolic domain of neuroligin 2 (NL2icd) (from UniProt Q62888 700-836) (domain or fragment)	–	–	–	–	–	1.37	–	–	–
gephyrin linker followed by the E domain (GephLE) (domain or fragment)	–	–	–	–	6.4	1.54	–	–	–
free SH3 domain of collybistin (domain or fragment)	–	–	–	–	373	1.44	–	–	–

More lines, in order of falling Kd [4], values ahead:

Kd [1] [µM]	species-weighted average fluorescence lifetime of CFP in the sensor with ligand [1] [ns]	species-weighted average fluorescence lifetime of CFP in the sensor with ligand [2] [ns]	species-weighted average fluorescence lifetime of CFP in the sensor with ligand [3] [ns]	Kd [4] [µM]	species-weighted average fluorescence lifetime of CFP in the sensor with ligand [4] [ns]	Kd [5] [µM]	species-weighted average fluorescence lifetime of CFP in the sensor with ligand [5] [ns]	species-weighted average fluorescence lifetime of CFP in the sensor with ligand [6] [ns]	Substance
–	–	–	–	6.3	1.36	–	–	–	isolated gephyrin E domain (GephE) (domain or fragment)
47	0.62	1.03	1.4	4.5	1.56	43	0.64	1.2	full-length gephyrin (GephFL) (from UniProt Q03555 1-768) (natural protein)
